Measurements reported in paper PMC3357421, “Conserved Orb6 Phosphorylation Sites Are Essential for Polarized Cell Growth in Schizosaccharomyces pombe” (PLoS ONE, 2012).

Target: T1, His6-HA-Nak1 (S. pombe, UniProt O75011 1-652)
T1 construct: Nak1, Ser/Thr kinase of fission yeast (Schizosaccharomyces pombe); HA-Nak1 inserted into pET33b; also called pET33b-His6-HA-Nak1; source: E. coli BL21, purified (NiNTA agarose)
T1 sequence (looked up): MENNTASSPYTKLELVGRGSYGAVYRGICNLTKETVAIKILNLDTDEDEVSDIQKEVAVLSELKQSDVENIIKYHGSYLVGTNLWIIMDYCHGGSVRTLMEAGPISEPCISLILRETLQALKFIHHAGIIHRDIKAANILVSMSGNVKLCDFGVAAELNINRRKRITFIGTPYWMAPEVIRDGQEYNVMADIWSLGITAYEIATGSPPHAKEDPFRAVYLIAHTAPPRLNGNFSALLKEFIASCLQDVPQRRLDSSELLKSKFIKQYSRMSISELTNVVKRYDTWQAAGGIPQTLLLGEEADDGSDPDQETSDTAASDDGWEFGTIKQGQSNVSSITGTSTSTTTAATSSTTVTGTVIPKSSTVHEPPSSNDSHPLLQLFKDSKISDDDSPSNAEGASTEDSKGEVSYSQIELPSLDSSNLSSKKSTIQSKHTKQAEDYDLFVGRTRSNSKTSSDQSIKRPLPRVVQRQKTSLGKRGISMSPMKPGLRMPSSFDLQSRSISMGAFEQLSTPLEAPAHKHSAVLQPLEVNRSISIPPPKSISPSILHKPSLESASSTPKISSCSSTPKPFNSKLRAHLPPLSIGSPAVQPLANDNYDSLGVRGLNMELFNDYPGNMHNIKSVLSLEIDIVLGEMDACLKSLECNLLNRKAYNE
Assay: pull-down; GST or GST-Orb6 bound to Glutathione Sepharose 4B beads incubated with His6-HA-Nak1 for 2 h; washed 3 times with 150 mM NaCl, 1 mM DTT, phosphate pH 7.3; western blot with anti-HA (12CA5)
Settings: both partners purified

B1: GST-Orb6 (enzyme, S. pombe, UniProt O13310 1-469, looked up)
chain: MDKNDYLHFERNPSLFPKSTLDKVQKTKKYIEHYYKVAVDHAVERNQRRINLEQRLATERGSEERKNRQLRASGEKESQFLRFRRTRLSLEDFSTIKVIGKGAFGEVRLVQKLDTGKIYAMKSLLKTEMFKRDQLAHVKAERDLLVESDSPWVVSLYYAFQDSLYLYLIMEFLPGGDLMTMLINYDTFSEDVTRFYMAECVLAIADVHRMGYIHRDIKPDNILIDRDGHIKLSDFGLSTGFYKQDQSASYMKPRTGNTVKRGQMVDAIWLTMSSKDKMATWKKNRRVMAYSTVGTPDYIAPEIFLQQGYGQDCDWWSLGAIMFECLIGWPPFCSENSHETYRKIINWRETLTFPNDIHLSIEARDLMDRLMTDSEHRLGRGGAIEIMQHPFFTGIDWDHIRETAAPFIPNLKSITDTHYFPVDELEQVPEQPVTQQPASVDPQTLEQTNLAFLGYTYKKFNYLTMKGAL
notes: Orb6, Ndr-related Ser/Thr kinase of fission yeast (Schizosaccharomyces pombe); PCR-amplified cDNA fragment encoding Orb6 in pGEX-5X-1 (a pGEX-6p-1 construct was also made); also called pGEX-5X-1-Orb6; source: E. coli BL21, purified (Glutathione Sepharose 4B)
B1: binds.
